{
  "source": "the RNAGym collection of RNA variant scans (doi:10.1021/acssynbio.7b00057)",
  "parents": {"B1": {"name": "Pistol ribozyme (parent)", "chain": "GGGUCGUUGUUCCAUAAUCGCGUGGAUAUGGCACGCAAGUUUCUACCGGGCACCGUAAAUGUCCGACUGGAGCCGUUCGGGCGGCUAUAAACAGACCUCAGGCCCGAAGCGUGGCGGCACCUGCCGCCGGUGGUAAAAAAGAUCGGAAGAGCACACGUCU"}},
  "data": [
    {"variants_of": "B1", "experiment": "aptazyme ON/OFF ratio, guanine; higher = stronger switching; co-transcriptional cleavage with and without guanine", "values": [
      {"variant": "U7G U8G G9C C12A C13U", "aptazyme ON/OFF ratio": 1.2},
      {"variant": "U7G U8G G9C C12A C13G", "aptazyme ON/OFF ratio": 1.08},
      {"variant": "U7G U8G G9C U10A U11G C12A C13G", "aptazyme ON/OFF ratio": 1.12},
      {"variant": "U7G U8G G9C U10A U11G C12A C13A", "aptazyme ON/OFF ratio": 1.07},
      {"variant": "U7G U8G G9C U10A U11G C12A C13U", "aptazyme ON/OFF ratio": 1.05},
      {"variant": "U7G U8G G9C U10A C12G", "aptazyme ON/OFF ratio": 1.03},
      {"variant": "U7G U8G G9C U10A C12A", "aptazyme ON/OFF ratio": 1.03},
      {"variant": "U7G U8G G9C U10A C12U", "aptazyme ON/OFF ratio": 1.02},
      {"variant": "U7G U8G G9C U10C U11C C13U", "aptazyme ON/OFF ratio": 1.07},
      {"variant": "U7G U8G G9C U10C U11C C13A", "aptazyme ON/OFF ratio": 1.09},
      {"variant": "U7G U8G G9C U10C U11C C13G", "aptazyme ON/OFF ratio": 1.04},
      {"variant": "U7G U8G G9C U11A C12U C13U", "aptazyme ON/OFF ratio": 1.26},
      {"variant": "U7G U8G G9C U11A C12U C13A", "aptazyme ON/OFF ratio": 1.13},
      {"variant": "U7G U8G G9C U11A C12U C13G", "aptazyme ON/OFF ratio": 1.15},
      {"variant": "U7G U8G G9C U11G C12G", "aptazyme ON/OFF ratio": 1.6},
      {"variant": "U7G U8G G9C U11G C12U", "aptazyme ON/OFF ratio": 1.31},
      {"variant": "U7G U8G G9C U11G C12A", "aptazyme ON/OFF ratio": 1.73},
      {"variant": "U7G U8G G9A U11A C12U", "aptazyme ON/OFF ratio": 1.44},
      {"variant": "U7G U8G G9C U10G U11A C12A C13A", "aptazyme ON/OFF ratio": 1.14},
      {"variant": "U7G U8G G9C U10G U11A C12A C13G", "aptazyme ON/OFF ratio": 1.12},
      {"variant": "U7G U8G G9C U10G U11A C12A C13U", "aptazyme ON/OFF ratio": 1.11},
      {"variant": "U7G U8G G9C", "aptazyme ON/OFF ratio": 4.59},
      {"variant": "U7G U8G G9U", "aptazyme ON/OFF ratio": 1.51},
      {"variant": "U7G U8G G9C U10G U11A C12G C13A", "aptazyme ON/OFF ratio": 1.06},
      {"variant": "U7G U8G G9C U10G U11A C12G C13U", "aptazyme ON/OFF ratio": 1.16},
      {"variant": "U7G U8G G9C U10G U11A C12G C13G", "aptazyme ON/OFF ratio": 1.12},
      {"variant": "U7G U8G G9U U10A", "aptazyme ON/OFF ratio": 3.21},
      {"variant": "U7G U8G G9C U10C U11A C12A C13A", "aptazyme ON/OFF ratio": 1.33},
      {"variant": "U7G U8G G9C U10C U11A C12A C13G", "aptazyme ON/OFF ratio": 1.23},
      {"variant": "U7G U8G G9C U10C U11A C12A C13U", "aptazyme ON/OFF ratio": 1.12},
      {"variant": "U7G U8G G9C U10C U11G C13G", "aptazyme ON/OFF ratio": 1.27},
      {"variant": "U7G U8G G9C U10C U11G C13A", "aptazyme ON/OFF ratio": 1.38},
      {"variant": "U7G U8G G9C U10C U11G C13U", "aptazyme ON/OFF ratio": 1.3},
      {"variant": "U7G U8G G9C U11C C12U C13G", "aptazyme ON/OFF ratio": 1.37},
      {"variant": "U7G U8G G9C U11C C12U C13U", "aptazyme ON/OFF ratio": 1.26},
      {"variant": "U7G U8G G9C U11C C12U C13A", "aptazyme ON/OFF ratio": 1.43},
      {"variant": "U7G U8G G9C U10C U11C", "aptazyme ON/OFF ratio": 1.22},
      {"variant": "U7G U8G G9C U10C U11A", "aptazyme ON/OFF ratio": 1.64},
      {"variant": "U7G U8G G9C U10C U11G", "aptazyme ON/OFF ratio": 1.35},
      {"variant": "U7G U8G G9C U10G U11A C12U C13A", "aptazyme ON/OFF ratio": 1.13},
      {"variant": "U7G U8G G9C U10G U11A C12U C13G", "aptazyme ON/OFF ratio": 1.1},
      {"variant": "U7G U8G G9C U10G U11A C12U C13U", "aptazyme ON/OFF ratio": 1.1},
      {"variant": "U7G U8G G9C U10C C12A", "aptazyme ON/OFF ratio": 1.33},
      {"variant": "U7G U8G G9C U10C C12G", "aptazyme ON/OFF ratio": 1.28},
      {"variant": "U7G U8G G9C U10C C12U", "aptazyme ON/OFF ratio": 1.38},
      {"variant": "U7G U8G G9C U10G C12A", "aptazyme ON/OFF ratio": 1.14},
      {"variant": "U7G U8G G9C U10G C12G", "aptazyme ON/OFF ratio": 1.21},
      {"variant": "U7G U8G G9C U10G C12U", "aptazyme ON/OFF ratio": 1.17},
      {"variant": "U7G U8G G9C U10G U11A C13U", "aptazyme ON/OFF ratio": 1.12},
      {"variant": "U7G U8G G9C U10G U11A C13A", "aptazyme ON/OFF ratio": 1.1},
      {"variant": "U7G U8G G9C U10G U11A C13G", "aptazyme ON/OFF ratio": 1.05},
      {"variant": "U7G U8G G9C U10A U11A C13U", "aptazyme ON/OFF ratio": 1.07},
      {"variant": "U7G U8G G9C U10A U11A C13A", "aptazyme ON/OFF ratio": 1.06},
      {"variant": "U7G U8G G9C U10A U11A C13G", "aptazyme ON/OFF ratio": 1.02},
      {"variant": "U7G U8G G9C U10A U11C C12A C13U", "aptazyme ON/OFF ratio": 1.04},
      {"variant": "U7G U8G G9C U10A U11C C12A C13A", "aptazyme ON/OFF ratio": 1.07},
      {"variant": "U7G U8G G9C U10A U11C C12A C13G", "aptazyme ON/OFF ratio": 1.06},
      {"variant": "U7G U8G G9C U10A C12G C13U", "aptazyme ON/OFF ratio": 1.04},
      {"variant": "U7G U8G G9C U10A C12G C13A", "aptazyme ON/OFF ratio": 1.05},
      {"variant": "U7G U8G G9C U10A C12G C13G", "aptazyme ON/OFF ratio": 1.04},
      {"variant": "U7G U8G G9A U11C C13A", "aptazyme ON/OFF ratio": 1.25},
      {"variant": "U7G U8G G9A U11C C13G", "aptazyme ON/OFF ratio": 1.12},
      {"variant": "U7G U8G G9A U11C C13U", "aptazyme ON/OFF ratio": 1.28},
      {"variant": "U7G U8G G9U U10A C12G C13G", "aptazyme ON/OFF ratio": 1.09},
      {"variant": "U7G U8G G9U U10A C12G C13A", "aptazyme ON/OFF ratio": 1.07},
      {"variant": "U7G U8G G9U U10A C12G C13U", "aptazyme ON/OFF ratio": 1.13},
      {"variant": "U7G U8G G9C U10G U11G C13A", "aptazyme ON/OFF ratio": 1.18},
      {"variant": "U7G U8G G9C U10G U11G C13U", "aptazyme ON/OFF ratio": 1.28},
      {"variant": "U7G U8G G9C U10G U11G C13G", "aptazyme ON/OFF ratio": 1.17},
      {"variant": "U7G U8G G9C U10A U11G C13G", "aptazyme ON/OFF ratio": 1.03},
      {"variant": "U7G U8G G9C U10A U11G C13U", "aptazyme ON/OFF ratio": 1.04},
      {"variant": "U7G U8G G9C U10A U11G C13A", "aptazyme ON/OFF ratio": 1.08},
      {"variant": "U7G U8G G9A U11G C12A C13G", "aptazyme ON/OFF ratio": 1.09},
      {"variant": "U7G U8G G9A U11G C12A C13A", "aptazyme ON/OFF ratio": 0.999},
      {"variant": "U7G U8G G9A U11G C12A C13U", "aptazyme ON/OFF ratio": 1.18},
      {"variant": "U7G U8G G9C U11A C12G C13G", "aptazyme ON/OFF ratio": 1.07},
      {"variant": "U7G U8G G9C U11A C12G C13U", "aptazyme ON/OFF ratio": 1.2},
      {"variant": "U7G U8G G9C U11A C12G C13A", "aptazyme ON/OFF ratio": 1.12},
      {"variant": "U7G U8G G9C U10A U11G C12G C13A", "aptazyme ON/OFF ratio": 1.1},
      {"variant": "U7G U8G G9C U10A U11G C12G C13G", "aptazyme ON/OFF ratio": 1.07},
      {"variant": "U7G U8G G9C U10A U11G C12G C13U", "aptazyme ON/OFF ratio": 1.06},
      {"variant": "U7G U8G G9A U11G C12U", "aptazyme ON/OFF ratio": 1.5},
      {"variant": "U7G U8G G9A U11G C12G", "aptazyme ON/OFF ratio": 1.39},
      {"variant": "U7G U8G G9A U11G C12A", "aptazyme ON/OFF ratio": 1.28}
    ]}
  ]
}
